From article PMC9524465 (ACS catalysis, 2021)

Target: the molecule itself
Assay: crystal structure

B1: [3SCC-(I9H)3] artificial copper peptide (ArCuP), de novo designed trimeric coiled coil peptide (peptide)
chain: GIAAIKQEHAAIKQEIAAIKQEIAAIKWEG
modifications: not fully specified; acetylated N-terminal Gly (Ac-); amidated C-terminal Gly (-CONH2)
- stoichiometry N: 3
